Values belong to the molecule of their own block, whether it stands above or below them.
Assays:
[1] = molecular target: rabbit HCN4 carrying an internal deletion (from residues 783 to 1064) (rabbit) (UniProt Q9TV66); assay: mass photometry; Refeyn OneMP; SEC peak fractions of the co-purified HCN4 - EGFP-TRIP8b complex in LMNG-CHS, 1 μL at 200 nM added to 10 μL buffer at room temperature, 60 s recording; no cAMP
[2] = molecular target: the molecule itself; assay: mass photometry; Refeyn OneMP; the same co-purified HCN4 - EGFP-TRIP8b complex with 2 mM cAMP added prior to mass photometry

- stoichiometry N (TRIP8b per tetrameric HCN4) [1]: 4
Molecule: EGFP-tagged TRIP8b (1a), full-length mouse TRIP8b (splice variant 1a4) (from UniProt Q8C437 1-567) (natural protein)

B1: rabbit HCN4 carrying an internal deletion (from residues 783 to 1064) (natural protein, UniProt Q9TV66 1-1175, looked up)
chain: MDKLPPSMRKRLYSLPQQVGAKAWIMDEEEDAEEEGAGGRQDPRRRSIRLRPLPSPSPSPSAAAAAAGGAESRGAALGGAADGEGPARGAAKSSTNGDCRRFRGSLASLGSRGGGGGGGSTGGGSHGHLHDSAEERRLIAEGDASPGEDRTPPGLAAEPERPGAPAPPAASPPQVPSSCGEQRPADAAVKVEGGAAAGDQILPEAEARLGQAGFMQRQFGAMLQPGVNKFSLRMFGSQKAVEREQERVKSAGFWIIHPYSDFRFYWDLTMLLLMVGNLIIIPVGITFFKDENTTPWIVFNVVSDTFFLIDLVLNFRTGIVVEDNTDIILDPRRIKMKYLKSWFVVDFVSSIPVDYIFLIVETRIDSEVYKTARALRIVRFTKILSLLRLLRLSRLIRYIHQWEEIFHMTYDLASAVVRIVNLIGMMLLLCHWDGCLQFLVPMLQDFPDDCWVSLNNMVNNSWGKQYSYALFKAMSHMLCIGYGRQAPMGMSDVWLTMLSMIVGATCYAMFIGHATALIQSLDSSRRQYQEKYKQVEQYMSFHKLPPDTRQRIHDYYEHRYQGKMFDEESILGELSEPLREEIINFNCRKLVASMPLFANADPNFVTSMLTKLRFEVFQPGDYIIREGTIGKKMYFIQHGVVSVLTKGNKETKLADGSYFGEICLLTRGRRTASVRADTYCRLYSLSVDNFNEVLEEYPMMRRAFETVALDRLDRIGKKNSILLHKVQHDLSSGVSNYQENAIVQRIVQHDREMAHCARRAQATTPVAPAIWTPLIQAPLQAAQDLKLISASQPALPQDGAQTLRRASPHSSSGESVAALPPFPRAPGRPPGAGPGQHVTLTLPRKASSGSLPPPLSLFGPRAAPAGGPRLTAAPQREPGAKSEPVRSKLPSNL
notes: the extreme C-terminal SNL tripeptide is preserved; expected MW of the monomer 98.4 kDa; Cloned into the pCI vector; no tag is stated for HCN4; also called HCN4ΔC; modified HCN4 channels; source: HEK293-F, transiently co-transfected with TRIP8b; solubilised in detergent (LMNG-CHS), purified in complex with TRIP8b (Ni2+-NTA, Superose 6 SEC)
- stoichiometry N [2]: 4

Reference: PMC9549148, “Validation of the binding stoichiometry between HCN channels and their neuronal regulator TRIP8b by single molecule measurements” (Frontiers in Physiology, 2022)
